Measured values as given in the supplement of paper PMC10567573.

B1: SOAT1 (parent)
chain: PSNGRIDIKQLIAKKIKLTAEAEE

Variants of: B1
Test: protein stability index of a GFP-peptide fusion (GPS, HEK-293T) (PSI 1-6); higher = more stable
Settings: c terminus: a fixed tail appended
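Further: lentivirally expressed fusions sorted by FACS into six bins by GFP to DsRed ratio, PSI derived from sequencing read proportions per bin multiplied by bin number.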

Variant | protein stability index
L11Y | 3.42
L11C | 3.5
L11K | 3.68
L11H | 3.97
L11T | 4.3
L11A | 3.83
G4T | 3.49
G4M | 3.61
G4P | 4.09
G4H | 3.36
G4R | 3.56
K9E | 4.03
K9A | 3.04
K9G | 3.39
K9T | 3.23
K9H | 3.07
I8D | 4.48
I8M | 3.44
I8Q | 3.8
I8S | 3.99
I8R | 4.06
I8P | 3.38
I8K | 3.64
I8Y | 4.13

Variant | protein stability index
I6K | 3.74
I6E | 4.06
I6D | 4.4
I6M | 2.56
I6C | 3.26
I6V | 3.32
I6A | 3.79
E21A | 2.74
E21D | 3.43
E21W | 2.12
E21C | 2.78
E21M | 2.4
E21Y | 2.21
I12A | 3.53
I12H | 3.89
I12L | 3.17
I12Q | 4.17
I12G | 3.9
I12W | 2.78
I12V | 3.48
I12Y | 3.19
I12E | 4.35
P1Q | 3.23
P1G | 3.33

Variant | protein stability index
P1W | 2.92
P1E | 2.65
P1M | 3.1
P1S | 3.46
P1A | 3.1
P1Y | 3.62
P1F | 3.22
P1K | 3.04
P1H | 3.24
T19I | 2.12
T19N | 3.29
T19D | 4.18
T19F | 1.98
T19M | 1.89
T19H | 3.21
T19G | 3.17
T19P | 3.4
T19Q | 2.96
K14W | 3.07
K14R | 3.22
K14A | 2.88
K14V | 2.98
K14E | 4.04
K14C | 3.37

Variant | protein stability index
D7K | 3.14
D7R | 2.94
D7T | 2.97
D7Y | 2.35
D7P | 3.23
D7L | 3.38
D7V | 2.41
D7Q | 3.01
D7H | 3.65
D7C | 3.12
I16Q | 3.52
I16E | 4.45
I16A | 4.04
I16G | 4.5
I16H | 3.78
I16N | 4.02
I16R | 3.65
I16D | 4.42
I16P | 3.81
K15T | 3.13
K15Q | 3.87
K15I | 2.48
K15R | 2.88
K15L | 1.87

Variant | protein stability index
K15D | 4.25
K15N | 4.05
A20T | 3.47
A20S | 3.61
A20V | 2.8
A20G | 3.42
A20K | 3.47
A20W | 2.66
A20M | 2.71
A20L | 3.1
A20E | 3.88
E23I | 2.69
E23G | 2.98
E23M | 2.06
E23V | 2.3
E23L | 2.12
E23H | 2.67
E23A | 2.66
E23Q | 2.35
E23R | 2.74
E23F | 1.75
E23S | 2.51
N3C | 3.86
N3S | 4.13

Variant | protein stability index
N3A | 4.25
L18V | 3.53
L18G | 4.04
L18P | 4.04
L18N | 3.73
L18E | 4.14
E24K | 2.98
E24R | 2.79
E24F | 2.22
E24D | 3.39
E24C | 3.19
S2D | 4.03
S2W | 2.88
S2C | 3.26
S2K | 2.58
R5H | 4
R5S | 3.75
R5A | 3.95
R5K | 3.68
R5P | 4.16
R5E | 4.42
R5Y | 3.81
R5M | 3.55
K17V | 3.38

Variant | protein stability index
K17Q | 3.5
K17H | 3.02
K17I | 2.84
K17L | 3.12
Q10H | 2.57
Q10D | 3.58
Q10W | 2.35
Q10T | 3.45
Q10I | 2.18
Q10P | 3.88
A13Y | 2.97
A13V | 2.84
A13I | 3.3
A13K | 3.48
A13M | 3.12
A13R | 3.57
A13N | 3.35
A22G | 3.66
A22V | 2.94
A22T | 2.82
A22E | 3.93
A22Q | 3.72
A22I | 2.59
